From the supplement of paper PMC9170038 come the findings set out here.

The test system of the data set is MS2 coat protein. Description: apparent KD of MS2 coat protein; designed switch direction (-1 OFF switch, 1 ON switch): 1; higher = weaker reporter binding. In short, it runs like this: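 Each step of the titration lasted 0.8–1.5 h at the lowest concentration and 10–20 min at the highest. The protein, SNAP-549-labelled MS2 coat protein, went from 0.7 or 1.5 nM doubling to 3 µM over RNA switches transcribed on Illumina chips by stalled E. coli RNA polymerase. Normalised cluster fluorescence was curve-fitted, and the per-design median over clusters is given as apparent KD.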

[1] abbreviates: Eterna round: R95, input ligand: FMN 200 uM.
The mark [2] stands for this setting: Eterna round: R95, input ligand: microRNA oligo, concentration not stated.
Setting [3] is: Eterna round: R95, input ligand: none.
Setting [4] is: input ligand: microRNA oligo, concentration not stated.

Turning to “GGGUGUGGAAGGAAAGACAGGGAAAGGAAACAUGAGGAUCACCCAUGUGAAGGAAGAAAGGGAGCUCGUCUUAUAAG [JR_SHM208A_Sub002] (puzzle: Sensor for hsa-mir-208a)”, the “apparent KD of MS2 coat protein” value under setting [1] was found to be 26 nM, the “apparent KD of MS2 coat protein” value under setting [2] turned out to be 27.6 nM and the “apparent KD of MS2 coat protein” value under setting [3] was determined as 35 nM.

Consider “GGUACCAUCACAGGAUAUGCUAUCCUUUGGGUAGCAGAAGGGUGAUACAUGAGGAUCACCCAUGUGGUGCCAGGGCGUGAGCCC [JL SSNG1 1.91] (Eterna round: R96, puzzle: Same State NG 1)”, for which the “apparent KD of MS2 coat protein” value came to 901 nM (input ligand: FMN 200 uM), 44.5 nM under setting [4] and 331 nM (input ligand: none).

Take “GGUAUCUCCCGUGAGGAUAUGCGGCGUAGAACAUGAGGAUCACCCAUGUCCUUCGAAUGGGUUACGCAGAAGGCACGACGGUACC [Robot Leg #2] (puzzle: Same State 2)”: the “apparent KD of MS2 coat protein” value under setting [2] turned out to be 24.5 nM.

In the case of “GGUCCAGCCUGAGCUGGACAAAAGCAUGUACAUGAGGAUCACCCAUGUCAUGUACAAGCUUUUUGCUCGUCUAAAGG [Mat - hsa-mir-208a - 92] (puzzle: Sensor for hsa-mir-208a)”, the “apparent KD of MS2 coat protein” value under setting [1] came out at 726 nM, the “apparent KD of MS2 coat protein” value under setting [2] turned out to be 23.8 nM and the “apparent KD of MS2 coat protein” value under setting [3] amounted to 586 nM.

In the case of “GGUCCAGCCUGAGCUGGACAAAAGCAUGUACAUGAGGAUCACCCAUGUCAUGUACAAGUUUUUUGCUCGUCUUAAAA [JL mod - D87 - 12] (puzzle: Sensor for hsa-mir-208a)”, the “apparent KD of MS2 coat protein” value is, setting by setting: under setting [1], 35.3 nM; under setting [2], 10.6 nM; under setting [3], 38.7 nM.

Regarding “GGUCCAGCCUGAGCUGGACAAAAGCAUGUACAUGAGGAUCACCCAUGUUCAUGUACAAGCUUUUUGCUCGUCUUGCA [salish99_208a_r3_110x] (puzzle: Sensor for hsa-mir-208a)”, the “apparent KD of MS2 coat protein” value runs as follows: under setting [1], 639 nM; under setting [2], 15.5 nM; under setting [3], 706 nM.

Take “GGUCCAGCCUGAGCUGGACGAAAGUAUGUACAUGAGGAUCACCCAUGUCAUGUAUAAGUUUUUUGUUUGUCUUGAAA [Sensorship 2 - Jieux - Sensor for hsa-mir-208a] (puzzle: Sensor for hsa-mir-208a)”: the “apparent KD of MS2 coat protein” value runs as follows: under setting [1], 22.4 nM; under setting [2], 11.2 nM; under setting [3], 22.7 nM.

For the sequence “GGUCUAGUUACAGGAUAUGCAUUGCUUUGCGAUGCAGAAGGGUGGUAACAUGAGGAUCACCCAUGUGGGCCAGCGCAAAAGCGC [JL SSNG1 cdp] (Eterna round: R96, puzzle: Same State NG 1)”, the “apparent KD of MS2 coat protein” value was found to be 981 nM (input ligand: FMN 200 uM), 661 nM under setting [4] and 1440 nM (input ligand: none).

In the case of “GGUGACUUAAGAGGAUAUCCCGUAACAUUCGUCGAUACGAGACAUGAGGAUCACCCAUGUGAAAUGGAGAAGGCUUUCGCAAAG [Eternabot solution 48] (Eterna round: R96, puzzle: Same State NG 2)”, the “apparent KD of MS2 coat protein” value came out at 52.7 nM (input ligand: FMN 200 uM), 40 nM under setting [4] and 58.2 nM (input ligand: none).

As to “GGUGCCAAAUAAGCCUACAUGAGGAUCACCCAUGUAUGUAGGCAGGAUAUCGUAUGCAAAGCAUACGAGAAGGGCCGAGGCACC [Mat - Same State NG 3 - JL Mod - D57] (Eterna round: R96, puzzle: Same State NG 3)”, the “apparent KD of MS2 coat protein” value came to 23.8 nM (input ligand: FMN 200 uM), 29.3 nM under setting [4] and 47.1 nM (input ligand: none).

For “GGUGGGUUACUACCAACACAUGAGGAUCACCCAUGUUUUGGGAAGGAUAUGGUACCUAUUUGGUACCAGAAGGUCCAGUUAAUG [salish99_SSNG3_r04_702] (Eterna round: R96, puzzle: Same State NG 3)”, the “apparent KD of MS2 coat protein” value by setting is: (input ligand: FMN 200 uM) 51.4 nM; under setting [4], 29.5 nM; (input ligand: none) 41.7 nM.

With “GGUGGGUUACUACCAACACAUGAGGAUCACCCAUGUUUUGGGAAGGAUAUGGUACCUAUUUGGUACCAGAAGGUCCUGUUGGUG [salish99_SSNG3_r04_706] (Eterna round: R96, puzzle: Same State NG 3)”, the “apparent KD of MS2 coat protein” value turned out to be 36.6 nM (input ligand: FMN 200 uM), 105 nM under setting [4] and 116 nM (input ligand: none).

For “GGUGGGUUGCUGCCGGCACAUGAGGAUCACCCAUGUUUUGGGAAGGAUAUGGUACCUAUUUGGUGCCAGAAGGUCCCGUUGGUG [salish99_SSNG3_r04_710] (Eterna round: R96, puzzle: Same State NG 3)”, the “apparent KD of MS2 coat protein” value runs as follows: (input ligand: FMN 200 uM) 402 nM; under setting [4], 376 nM; (input ligand: none) 480 nM.

For the sequence “GUACAACAUGAGGAUCACCCAUGUAUAUAUAUACGAGGAUAUGCAUGUACGAAAGUAUAUGCAGAAGGCGUUGUAC [Pin2Pin] (puzzle: Same State 1)”, the “apparent KD of MS2 coat protein” value under setting [2] came to 75.4 nM.

As to “GUAGAUAUAACGGAGGAUAUUCAAUGAGAGACAUGAGGAUCACCCAUGUGAGAGUGAGAUGAUAGGAAGAAGGCUGAGAGAGAUG [Altered State 2-7 - Jieux - Same State 2] (puzzle: Same State 2)”, the “apparent KD of MS2 coat protein” value runs as follows: under setting [1], 94.2 nM; under setting [2], 70.3 nM; under setting [3], 64.7 nM.

On to “GUAGCAUACCGAGGAUAUUCAUAUAAUAACAUGAGGAUCACCCAUGUAUAUAGGCGAAAGCCUUGGGAGAAGGCGGAAUGCUAC [Xeonanis - 20 Mod64] (Eterna round: R96, puzzle: Same State NG 2)”, for which the “apparent KD of MS2 coat protein” value (input ligand: FMN 200 uM) was 17.1 nM, the “apparent KD of MS2 coat protein” value under setting [4] was determined as 18.9 nM and the “apparent KD of MS2 coat protein” value (input ligand: none) is 31 nM.

With “GUAGGACAUGAGGAUCACCCAUGUGGGAGGGAACGAGGAUAUGUGAUUAGCGAGGAGAGGACAGAAGGCGUGGUAG [JR_SS1_Sub024] (puzzle: Same State 1)”, the “apparent KD of MS2 coat protein” value stood at 55.2 nM under setting [1], 35.4 nM under setting [2] and 50.8 nM under setting [3].

On to “GUAUAACAUGAGGAUCACCCAUGUCAUCUAAGUCGAGGAUAUGGGAAUUAAUUAAUUAAACCAGAAGGCGAAAAUU [Mat - Same State 1 - D92] (puzzle: Same State 1)”, for which the “apparent KD of MS2 coat protein” value reads like this: under setting [1], 79 nM; under setting [2], 364 nM; under setting [3], 492 nM.

“GUGAAACAUGAGGAUCACCCAUGUAUGACGGGCACAGGAUAUCGUGGUUCGCUCAUACUACGAGAAGGGUGAAAAG [Inordien] (puzzle: Same State 1)”: the “apparent KD of MS2 coat protein” value runs as follows: under setting [1], 20.5 nM; under setting [2], 18 nM; under setting [3], 18.9 nM.

Turning to “GUGCUCGUGUAAGGAUAUGCAGCCGUUUCGGCUGCAGAAGGUACUAUAAUACAUGAGGAUCACCCAUGUCUCUAUAAUUUGGUG [salish99_SSNG1_r04_904] (Eterna round: R96, puzzle: Same State NG 1)”, under setting [4], the “apparent KD of MS2 coat protein” value was 107 nM.

For “GUGCUCGUGUGAGGAUAUGCGGCCGGGUCGGCUGCAGAAGGUACUAUUAUACAUGAGGAUCACCCAUGUCGCUUUUCUCCGGUG [salish99_SSNG1_r04_919] (Eterna round: R96, puzzle: Same State NG 1)”, the “apparent KD of MS2 coat protein” value is 62.5 nM (input ligand: FMN 200 uM), 41.2 nM under setting [4] and 49 nM (input ligand: none).

Turning to “GUGGAGGGUUGAGGAUAUUGAAUACAUAUGUUUAACAUGAGGAUCACCCAUGUGGGUUGCGGUAUCGAGAAGGUAAAUUACUGG [salish99_SSNG2_r04_036] (Eterna round: R96, puzzle: Same State NG 2)”, the “apparent KD of MS2 coat protein” value reads like this: (input ligand: FMN 200 uM) 80.9 nM; under setting [4], 79 nM; (input ligand: none) 86.3 nM.

In the case of “GUGGCUGCCACAGGAUAUACCGUGUAAUUCACGGUAGAAGGGUGAAGCACUCAAAAGAGUGCUAACAUGAGGAUCACCCAUGUG [Quzaon] (Eterna round: R96, puzzle: Same State NG 1)”, the “apparent KD of MS2 coat protein” value (input ligand: FMN 200 uM) amounted to 1040 nM, the “apparent KD of MS2 coat protein” value under setting [4] came to 170 nM and the “apparent KD of MS2 coat protein” value (input ligand: none) is 290 nM.

Take “GUGGUCAGACAUGAGGAUCACCCAUGUGGAAUAAAUAACGUCAAGGAUAUUCAAUAUAGGAUAUAGAAGAAGGUGAGAUUGGUG (Eterna round: R96, puzzle: Same State NG 3)”: the “apparent KD of MS2 coat protein” value under setting [4] stood at 142 nM.

Regarding “GUGGUCAGACAUGAGGAUCACCCAUGUGGAAUAAAUAAGGAAAAGGAUAUCUAAUAUAGGAUAUAAGAGAAGGUUUGGUUGGUG (Eterna round: R96, puzzle: Same State NG 3)”, the “apparent KD of MS2 coat protein” value is, setting by setting: (input ligand: FMN 200 uM) 74.1 nM; under setting [4], 52.1 nM; (input ligand: none) 64.7 nM.

For the sequence “GUGGUCAGACAUGAGGAUCACCCAUGUGGAAUAAAUAAGGAAUAGGAUAUGGAAUAUAGGAUAUACCAGAAGGAUUGGUUGGUG (Eterna round: R96, puzzle: Same State NG 3)”, the “apparent KD of MS2 coat protein” value is, setting by setting: (input ligand: FMN 200 uM) 96.9 nM; under setting [4], 80.4 nM; (input ligand: none) 97 nM.

As for “GUGGUCAGACAUGAGGAUCACCCAUGUGGAAUAAAUAAGGCAUAGGAUAUGAAAUAUAGGAUAUAUCAGAAGGAUGGGUUGGUG (Eterna round: R96, puzzle: Same State NG 3)”, under setting [4], the “apparent KD of MS2 coat protein” value turned out to be 131 nM.

With “GUGGUCAGACAUGAGGAUCACCCAUGUGGAAUAAAUAAGGGACAGGAUAUCUAAUAUAGGAUAUAAGAGAAGGGUUGGUUGGUG (Eterna round: R96, puzzle: Same State NG 3)”, the “apparent KD of MS2 coat protein” value reads like this: (input ligand: FMN 200 uM) 69.3 nM; under setting [4], 44.8 nM; (input ligand: none) 73.5 nM.

In the case of “GUGGUCAGACAUGAGGAUCACCCAUGUGGAAUAAAUAAGGGUCAGGAUAUCUAAUAUAGGAUAUAAGAGAAGGGAUGGUUGGUG (Eterna round: R96, puzzle: Same State NG 3)”, the “apparent KD of MS2 coat protein” value reads like this: (input ligand: FMN 200 uM) 89.2 nM; under setting [4], 89.4 nM; (input ligand: none) 82.7 nM.
